The text below walks through data of article PMC7860981, “Mitochondrial Enzymes of the Urea Cycle Cluster at the Inner Mitochondrial Membrane” (Frontiers in Physiology, 2020).

The target in the test is T1, carbamylphosphate synthetase 1 (CPS1), endogenous in mouse liver mitochondria (mouse (endogenous in mouse liver …, UniProt Q8C196 39-1500)).
T1 construct: carbamylphosphate synthetase 1, mouse, endogenous in liver mitochondria; also called CPSI; source: endogenous, mouse liver mitochondria, lysate (PBS with 2% CHAPS)
T1 sequence (looked up): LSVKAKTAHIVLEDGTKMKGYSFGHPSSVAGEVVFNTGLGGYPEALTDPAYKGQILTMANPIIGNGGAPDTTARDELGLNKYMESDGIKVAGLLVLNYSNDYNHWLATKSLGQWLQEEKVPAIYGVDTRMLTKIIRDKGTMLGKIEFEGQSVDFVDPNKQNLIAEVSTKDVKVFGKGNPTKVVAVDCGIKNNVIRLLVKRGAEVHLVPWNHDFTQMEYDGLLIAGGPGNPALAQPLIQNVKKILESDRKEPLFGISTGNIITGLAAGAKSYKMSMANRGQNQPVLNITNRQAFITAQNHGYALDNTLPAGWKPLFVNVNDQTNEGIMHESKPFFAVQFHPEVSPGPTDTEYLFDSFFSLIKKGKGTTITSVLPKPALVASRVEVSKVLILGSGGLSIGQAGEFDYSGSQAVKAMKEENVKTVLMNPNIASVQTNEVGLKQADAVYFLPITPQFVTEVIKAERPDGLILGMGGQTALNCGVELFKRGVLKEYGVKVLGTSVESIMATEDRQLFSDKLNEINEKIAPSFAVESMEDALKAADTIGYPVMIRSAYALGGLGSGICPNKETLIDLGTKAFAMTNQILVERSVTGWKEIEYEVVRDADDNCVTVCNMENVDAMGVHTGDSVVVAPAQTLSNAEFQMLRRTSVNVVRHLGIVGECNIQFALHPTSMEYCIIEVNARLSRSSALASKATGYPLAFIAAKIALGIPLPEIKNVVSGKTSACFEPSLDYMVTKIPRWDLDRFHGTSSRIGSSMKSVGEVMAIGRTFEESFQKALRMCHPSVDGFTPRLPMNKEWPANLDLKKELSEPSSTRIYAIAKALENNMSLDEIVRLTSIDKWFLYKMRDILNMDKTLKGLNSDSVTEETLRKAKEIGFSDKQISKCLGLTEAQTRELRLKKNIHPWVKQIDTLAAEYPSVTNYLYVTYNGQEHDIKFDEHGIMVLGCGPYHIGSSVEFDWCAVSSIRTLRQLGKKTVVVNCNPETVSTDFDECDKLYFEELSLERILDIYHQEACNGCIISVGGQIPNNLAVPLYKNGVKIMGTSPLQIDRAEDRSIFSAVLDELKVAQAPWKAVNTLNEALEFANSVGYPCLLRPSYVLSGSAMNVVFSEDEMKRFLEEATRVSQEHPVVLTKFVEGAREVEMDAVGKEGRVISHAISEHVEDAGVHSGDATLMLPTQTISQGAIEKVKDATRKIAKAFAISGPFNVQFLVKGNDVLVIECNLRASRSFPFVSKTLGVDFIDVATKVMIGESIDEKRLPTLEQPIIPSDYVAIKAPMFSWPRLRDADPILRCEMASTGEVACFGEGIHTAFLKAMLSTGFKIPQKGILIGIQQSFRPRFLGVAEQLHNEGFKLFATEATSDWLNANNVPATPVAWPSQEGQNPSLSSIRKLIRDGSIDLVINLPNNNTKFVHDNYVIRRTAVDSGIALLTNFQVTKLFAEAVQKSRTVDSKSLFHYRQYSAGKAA
The experiment in a line: co-IP; competition experiment: purified recombinant mVS (10 to 30-fold molar excess over CPS1) mixed 1:1 (v/v) with mitochondrial lysate (2 mg/ml protein), added to magnetic beads cross-linked to anti-CPS1 antibodies; immunoblot for NAGS, densitometry of NAGS-M bands. The settings on record: one partner purified. (A western blot detects proteins with antibodies after separation by electrophoresis.)

B1: recombinant mouse variable segment (mVS) of NAGS (domain or fragment, UniProt Q8R4H7 49-117, looked up)
chain: LSTARAHAEDAEGAKGRVQSPAVEEPSWTPLPTPLESPAPPAGRSLVQRDIQAFLNQCGASPGEARHWL
notes: Predicted molecular weight 9.675 kDa as printed
As for B1, the “fold decrease of mNAGS co-immunoprecipitated with CPS1 in the presence of mVS” value stood at 5 fold.
